Experimental data reported in the DeepSol protein solubility set.

assay: soluble on expression in E. coli; label from the status in PepcDB or PDB records

| Sequence | soluble on expression in E. coli |
| --- | --- |
| MEDRNNIYFFYKHTKSMQEAVEPLKQLATSQGLNVVDDVQKANIIVSVGGNNAFLQATRKTNFRSDCLYVGVSTDREGFYPDFTINEIDKMFEAFENQNIEVKRLSTLEVTIDDEKPFYCLNECSIRSNVIKTFVLEVFIDDMHFETFRGDGMIVSTPTGSTAYNKSVRGAVVDPRLPSLQVSEIASLNNNTYRTLGTSFLLSGDRTLRLKVVQDGNDFPIIGADNEALSIRHAEDIKIRLSDKQVKVLKLKDNTFWHKVQRNFLLEHHHHHH | soluble |
| MGWPFIGETISFFKPHRSDSIGTFLQQRVSRYGKVFKSNICGGKAVVSCDQELNMFILQNEGKLFTSDYPKAMHDILGKYSLLLATGEIHRKLKNVIISFINLTKSKPDFLHCAENLSISILKSWKNCREVEFHKEVKIFTLSVMVNQLLSIKPEDPARLYVLQDFLSYMKGFISLPIPLPGTGYTNAIKVRSNRNIHQNAIIEDMNNAIREEDFLDSIISNEDEEHAAIRAKKGDGELLNWEDYQKMEFTQCVISEALRCGNIVKTVHRKATHDIKFNEYVIPKGWKVFPIFTAVHLDPSLHENPFEFNPMRWTKTTAFGGGVRVCPGGELGKLQIAFFLHHLVLSYRWKIKSDEMPIAHPYVEFKRGMLLEIEPTKFLED | soluble |
| IASPQAGMAALTGTLAGTRQGMISFTQQNEQEADRIGIQVLQRAGFDPQAMPSFLEKLLDQARYSTRPPEILLTHPLPESRLADARNRANQMRPVVVQSSADFYFAKARALGMYNSGRNQLTSDLLDQWSKGNVHQQHAAQYGRALQAMEASKYDEARKTLQPLLSAEPNNAWYLDLATDIDLGQKRANDAINRLKNARDLRVNPVLQLNLANAYLQGGQPKAAETILNRYTFSHKDDGNGWDLLAQAEAALNNRDQELAARAESYALAGRLDQAISLLSSASAQAKLGCQQQARYDARIDQLRQLQERFKPYTK | not soluble |
| MSLRVDTLIRGGVVLTMDGDFTRHDAGYVAVTGGRISHVGADADAAGLSAERVIDAEGGIILPGFVNTHCHAAMTLFRGLADDVDLDGFLRTVWRAEAEHIGPASVELGAELAIAEMALSGVTHFLDMYWYPEATIAAAQRVGMGLTSGPPMLNVEGVDGMGWAERMAYTEGFLERYSGVDGVQPMLLPHGCYTLDADKLAEIANLARAAGCGVHIHAAEAAWEMQLVRDAYGTTPVRALERAGLLEQPLLLAHAVHLDGEEIALLADAGAGVAHCPLSNAKLASGMAPIGEMRASGVTLSLGTDGPASGNDLDMFATMRLAALVHNLRSGTSDTLPARDLVAMATSGGAMALGLGARTGSLEVGKQADITVVATDAPHNVPSYCPYSTLVFSAGRSEVRHVLARGRALVADGRPTTPTEPVKAEVRRLAADIANRRDEGHHHHHH | soluble |
| MGSDKIHHHHHHMMISLYSAATGMSAQQFKLDTIANNLANVDTTGYKKVRAEFQDLLYQYVKNAGTPTAATSSLPTGLYVGHGVRTAATTRIFTLGNFEQTGNALDLAIAGDGFFQIQLQDGRIAYTRDGSFKMDSEGRIVTSNGLLLVPEITIPENAVSINVSPDGIVSAELQDGTIQELGTITLVRFVNPSGLKSIGDNLYIATPASGDPIEGVPGQDGFGAIKQGFLEKSNVDVVREMVDMITAQRAYEFNSRVIQTADEMLRTATNVKR | not soluble |
| MIPPSSPREDGVDGLPKEAVGAEQPPSPASTSSQESKLQKLKRSLSFKTKSLRSKSADNFFQRTNSEDMKLQAHMVAEISPSSSPLPAPGSLTSTPARAGLHPGGKAHAFHEYIFKKPTFCDVCNHMIVGTNAKHGLRCKACKMSIHHKCTDGLAPQRCMGKLPKGFRRYYSSPLLIHEQFGCIKEVMPIACGNKVDPVYETLRFGTSLAQRTKKGSSGSGSDSPHRTSTSDLVEVPEEANGPGGGYDLRKRSNSVFTYPENGTDDFRDPAKNINHQGSLSKDPLQMNTYVALYKFVPQENEDLEMRPGDIITLLEDSNEDWWKGKIQDRIGFFPANFVQRLQQNEKIFRCVRTFIGCKEQGQITLKENQICVSSEEEQDGFIRVLSGKKKGLIPLDVLENI | soluble |
| LDINKPENVISKEVSFLGEALPKSIKSECPNESFTLDDKDVVKSTSGSVQNEPLKNINENIYDPKLKKALDKSKPEILIYHSHTTEAYKPYPADSLNSTQNVCAVGDELVKELGEKYGIYAINDKTVHNVVDYNKSYTRSGETLDKYLKQYGDFKMIIDMHRDSDVPKSKVTARINGEDVAKFMFVMTRKNPHFDKNMALVNGLVSICNKDFPGIFNGIYYYDYGINYYNQQKSNNAFLLEVGSDINTIDEAKGTSKYLARIIAEYLNGKK | not soluble |
| MNKGQRHIKIREIITSNEIETQDELVDMLKQDGYKVTQATVSRDIKELHLVKVPTNNGSYKYSLPADQRFNPLSKLKRALMDAFVKIDSASHMIVLKTMPGNAQAIGALMDNLDWDEMMGTICGDDTILIICRTPEDTEGVKNRLLELL | soluble |
| MGSDKIHHHHHHMQFGAKPLFENVSVKFGNGNRYGLIGANGCGKSTFMKILGNDLEPSAGQVMLEPNVRLGKLRQDQFAYEDFSVIDTVIMGHEELWAVKAERDRIYSLPEMSEADGMAVAELEVQFAEFDGYTAESRAGELLLGLGIPLEQHFGPMSAVAPGWKLRVLLAQALFSDPDVLLLDEPTNHLDINTIRWLEGVLTARNSTMIIISHDRHFLNSVCTHMADLDYGELRLFPGNYDEYMTAAEQARERLLSDNAKKKAQIAELQSFVSRFSANASKAKQATSRARQIDKIQLEEVKPSSRVSPFIRFEQYKKLHRQAVTVENISKGYDGKPLFKGLSLQVEAGERVAIIGPNGIGKTTLLRCLVGDLPVDGGEVKWTDSADVGYFAQDHADDFADDMSLFDWMAQWTQGGEQLVRGTLGRMLFSNDEIKKSVKVISGGEQGRMLFGRLILKRPNVLVMDEPTNHLDMESIEALNLALDNYPGTLIFVSHDREFVSSLATRIIELGENGVTDFSGSYDDYLRSQGVIV | not soluble |
| MSAEGLDKDFCGAIIPDSFFPIEKLRNYTDMGIIREFAKGSAIIMPGEDTTSMIFLMDGKIKLDIIFEDGSEKLLYYAGSNSLIGRLYPTGNNIYATAMEQTRTCWFSEECLRVIFRTDEDMIFEIFKNYLTKVAYYARQVAEINTYNPTIRILRLFYELCSSQGKRVGDTYEITMPLSQKSIGEITGAHHVTVSKVLACLKKENILDKKKNKFIVYNLEELKHLSEQTSYY | soluble |
| MGSDKIHHHHHHMYTLNILKDSTAVMYEKMTFPAFQYVLQEINSKESLIAIAASYQEEPVGLVLAEIRTYNQSAEVLSLFVEPSHRCAGIGTNLLNRLETELTYRRCKKVELVYMTGKSTTPALENLLHKCGWTSPQPRMLVCKGEMEKGIQAPWLKQYSQLPAAYTIFPWREITTQERQAIERQQATQPWIPEDLIPFKYDKQIEPLNSLGLRYQGQVVGWLISHRIFPDTIRYTCAFCRPDIQKKGRMITLFYEAAKLQLNAKIPHFIWTTPMNHQSMVAFVKYRCLPYLTSIQETRIISKLLLG | not soluble |
| MGSDKIHHHHHHMKINRLTEIIVILLNKKLVTAKELADRFEVSTRTIYRDIETLSMSGVPVYMTKGKGGGISLIEEYSIDKAILSKKDKESLIVALKTLQATKYPEINSVVNKIGSIFGEQNFSNWIEIDFTEWGSNFNEDDKFTKIKEAILRRNTINFNYVNSLSSQTNRTVEPLKLMYKSKTWYLYGFCKLKDDFRIFRISRIRNLSIKDEVFSRKIIEEVCLNDSKVIKENTITLKLRFKEKMLFRVFDDFNKDLITKNEDDTYDVITEFPIGEWIYGYILSFGDNVEVLEPKDVRDNVITRLRELSKIYSL | not soluble |
| AIASAEAADREAVSGSRPCTPPQTSWFEFLLNPSLLEQHLHSPHPDPSPVQLIFQFLEQASKPSVNEQNQVQPPVDNRRNRTLKLMALKVAAHLRWDLNMLEKGLTIPVLNMLLNELLCVSHVPPGVKHVDLDLSSLPPTTAMAVVFYNRWAIRTIVLSSFPEKQTKPGPHQLNMMNMLQQEKEHTENILSVLREQATDSIMVLEGALSIKKDFYIHL | soluble |
| MEYHSHTVVTERKVTLLEQGQASDLTDYVANEVRVALVYNGISHTVMLASPENLEEFAIGFTLSERIVSHVNEIKGVDLEFTPEGVLIQVEITQRCFMALKQLRRNMAGRTGCGLCGVAQLEEAVKPVIRVDSDARFNIDHLQFALEQVKDNQHHFKLTGATHAAMGLDLEGQIIAAYEDIGRHIALDKLIGGCSMRHAKRPVAVLLTSRASFEMVQKAASANIQILFAMSAVTSLALELAEKSNITLIGFCRNGRATLYTHGYRLLGLNRASLAKAIAAALEHHHHHH | not soluble |
